{"source": "patent US20100137208A1", "about": "“INTRATUMORALLY ADMINISTERED LACTOFERRIN IN THE TREATMENT OF MALIGNANTNEOPLASMS AND OTHER HYPERPROLIFERATIVE DISEASES” (priority 2002, published 2010)", "molecules": {"B1": {"name": "bLF: bovine lactoferrin, orally administered comparator (protein, UniProt P24627 20-708, looked up)", "Lactotransferrin": "APRKNVRWCTISQPEWFKCRRWQWRMKKLGAPSITCVRRAFALECIRAIAEKKADAVTLDGGMVFEAGRDPYKLRPVAAEIYGTKESPQTHYYAVAVVKKGSNFQLDQLQGRKSCHTGLGRSAGWIIPMGILRPYLSWTESLEPLQGAVAKFFSASCVPCIDRQAYPNLCQLCKGEGENQCACSSREPYFGYSGAFKCLQDGAGDVAFVKETTVFENLPEKADRDQYELLCLNNSRAPVDAFKECHLAQVPSHAVVARSVDGKEDLIWKLLSKAQEKFGKNKSRSFQLFGSPPGQRDLLFKDSALGFLRIPSKVDSALYLGSRYLTTLKNLRETAEEVKARYTRVVWCAVGPEEQKKCQQWSQQSGQNVTCATASTTDDCIVLVLKGEADALNLDGGYIYTAGKCGLVPVLAENRKSSKHSSLDCVLRPTEGYLAVAVVKKANEGLTWNSLKDKKSCHTAVDRTAGWNIPMGLIVNQTGSCAFDEFFSQSCAPGADPKSRLCALCAGDDQGLDKCVPNSKEKYYGYTGAFRCLAEDVGDVAFVKNDTVWENTNGESTADWAKNLNREDFRLLCLDGTRKPVTEAQSCHLAVAPNHAVVSRSDRAAHVKQVLLHQQALFGKNGKNCPDKFCLFKSETKNLLFNDNTECLAKLGGRPTYEEYLGTEYVTAIANLKKCSTSPLLEACAFLTR"}}, "system": "IL-18", "test": "IL-18 levels in small intestine and serum after oral rhLF or bLF (ELISA)", "assay_type": "in vivo, mice", "method": "Recombinant human lactoferrin and bovine lactoferrin were orally administered to mice, and the production of IL-18 in the small intestine was measured.\nMice were treated for three days daily with 65 mg/kg/day of rhLF, 300 mg/kg/day of rhLF or 300 mg/kg/day of bLF. For a control, mice were only administered the pharmaceutical carrier. Twenty-four hours following administration of the LF or control for 3 days, animals were weighed and blood and serum were collected. Serum was used for cytokine ELISA assays.\nAlso, at these time points, animals were sacrificed and the small intestinal tissue was removed for further analysis. Small intestinal epithelium was homogenized using a lysis buffer consisting of PBS, 1% Nonidet P-40, 0.5% sodium deoxycholate, and 0.1% sodium dodecyl sulphate containing 10 μg/ml PhenylMetheylsulfonyl fluoride. Homogenate was centrifuged at 15,000 rpm for 10 minutes and the supernatant stored at −80 C till it was tested for IL-18 levels.", "key": {"[1]": {"settings": "oral 300 mg/kg/day for three days"}, "[2]": {"settings": "oral 300 mg/kg/day for three days, 24 h after last dose"}}}
{"molecule": "B1", "values": [{"measurement": "serum levels of IL-18 (in words)", "setting": "oral 300 mg/kg/day", "result": "did not increase"}, {"measurement": "IL-18 Intestinal Extract % Increase Over Control", "setting": "[1]", "result": 373, "unit": "%"}, {"measurement": "IL-18 Serum % Increase Over Control", "setting": "[1]", "result": "−5", "unit": "%"}, {"measurement": "IL-18 level, Intestinal Extract", "setting": "[2]", "result": "4,515 pg"}, {"measurement": "IL-18 level, Serum", "setting": "[2]", "result": 134, "unit": "pg"}, {"measurement": "intestinal IL-18 levels (in words)", "setting": "oral 300 mg/kg/day, compared with rhLF", "result": "lesser increase"}]}
